Measurements reported in article PMC5527709 (Drug delivery and translational research, 2013).

T1: human CD133 protein (coated on ELISA wells) (human) (UniProt O43490)
T1 sequence: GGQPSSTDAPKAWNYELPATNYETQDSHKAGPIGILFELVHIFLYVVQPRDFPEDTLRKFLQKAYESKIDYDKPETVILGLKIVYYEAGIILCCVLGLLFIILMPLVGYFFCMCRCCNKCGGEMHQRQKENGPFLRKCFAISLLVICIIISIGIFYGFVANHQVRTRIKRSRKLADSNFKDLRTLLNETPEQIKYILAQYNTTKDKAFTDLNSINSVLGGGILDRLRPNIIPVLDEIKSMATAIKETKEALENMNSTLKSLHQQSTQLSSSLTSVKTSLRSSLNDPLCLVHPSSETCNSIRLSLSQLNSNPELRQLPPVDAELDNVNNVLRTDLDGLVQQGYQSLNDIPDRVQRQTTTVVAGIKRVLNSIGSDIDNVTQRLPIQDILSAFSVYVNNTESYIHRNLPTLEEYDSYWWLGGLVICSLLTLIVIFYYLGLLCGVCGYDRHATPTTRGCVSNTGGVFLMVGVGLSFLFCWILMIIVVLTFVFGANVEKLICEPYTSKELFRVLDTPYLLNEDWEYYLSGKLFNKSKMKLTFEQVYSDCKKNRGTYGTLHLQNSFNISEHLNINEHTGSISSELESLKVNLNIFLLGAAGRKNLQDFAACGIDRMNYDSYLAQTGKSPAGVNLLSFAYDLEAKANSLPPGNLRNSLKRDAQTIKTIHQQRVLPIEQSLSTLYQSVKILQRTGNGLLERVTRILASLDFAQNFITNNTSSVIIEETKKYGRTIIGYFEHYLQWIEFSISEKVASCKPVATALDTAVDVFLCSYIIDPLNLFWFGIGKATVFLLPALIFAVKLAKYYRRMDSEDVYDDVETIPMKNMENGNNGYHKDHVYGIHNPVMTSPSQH


What was measured:
[1] = target: T1, human CD133 protein (coated on ELISA wells) (human); test: ELISA
[2] = target: human CD133 on Caco-2 cells (Homo sapiens, endogenous in Caco-2, UniProt O43490); test: flow cytometry on cells

| absorbance at 450 nm [1] [AU] | binding result [2] | Binder |
| --- | --- | --- |
| 0.9 |  | anti-CD133 scFv clone 11, HA-tagged, secreted into bacterial culture supernatant (scFv, V domains shown) VH: EVKLVESGPELKKPGETVKISCKASGYTFTDYSMHWVNQAPGKGLKWMGWINTETGEPSYADDFKGRFAFSLETSASTAYLQINNLKNEDTATYFCATDYGDYFDYWGQGTTLTVSS VL: DIVLSQSPAIMSASPGEKVTISCSASSSVSYMYWYQQKPGSSPKPWIYRTSNLASGVPARFSGSGSGTSYSLTISSMEAEDAATYYCQQYHSYPPTFGAGTKLELK |
|  | binds | anti-CD133 scFv (clone 11) without HA epitope tag, FITC-labelled (scFv, V domains shown) VH: EVKLVESGPELKKPGETVKISCKASGYTFTDYSMHWVNQAPGKGLKWMGWINTETGEPSYADDFKGRFAFSLETSASTAYLQINNLKNEDTATYFCATDYGDYFDYWGQGTTLTVSS VL: DIVLSQSPAIMSASPGEKVTISCSASSSVSYMYWYQQKPGSSPKPWIYRTSNLASGVPARFSGSGSGTSYSLTISSMEAEDAATYYCQQYHSYPPTFGAGTKLELK |
